Experimental data taken from paper PMC3415792 (ACS chemical biology, 2011).

Key:
crystal structure = target: the molecule itself; assay: crystal structure
[1] = target: soluble human CD40 extracellular domain (human); assay: SPR

B1: myc tagged form of soluble human CD40L (ligand)
chain: NMGDQNPQIAAHVISEASSKTTSVLQWAEKGYYTMSNNLVTLENGKQLTVKRQGLYYIYAQVTFCSNREASSQAPFIASLCLKSPGRFERILLRAANTHSSAKPCGQQSIHLGGVFELQPGASVFVNVTDPSQVSHGTGFTSFGLLKL
modifications: glycan (3 glycan chains in the model of the trimer)
Crystal structure
  stoichiometry N: 3
[1]
  Kd: ~13 µM
